The results in this text go back to article PMC4824355, “Translocator Protein-Mediated Stabilization of Mitochondrial Architecture during Inflammation Stress in Colonic Cells” (PLoS ONE, 2016).

This data set concerns the molecule itself. The data set is described as follows: SDS-PAGE and immunoblot of detergent-solubilised mitochondrial membranes; HT-29 mitochondrial membranes solubilised in SDS or 0.1% DDM, 4%-12% Tris-glycine SDS-PAGE, anti-TSPO blot; cells untreated or treated with 10 ng/mL TNF, 1 uM PK 11195 or both for 24, 48 or 72 h.

Where “and” joins values, the source holds several entries; their conditions need not be identical. Equal entries are not always repeated.

B1: translocator protein (18 kDa; tryptophan-rich sensory protein oxygen sensor, TSPO) (natural protein, human (endogenous in HT-29), UniProt P30536 1-169, looked up)
chain: MAPPWVPAMGFTLAPSLGCFVGSRFVHGEGLRWYAGLQKPSWHPPHWVLGPVWGTLYSAMGYGSYLVWKELGGFTEKAVVPLGLYTGQLALNWAWPPIFFGARQMGWALVDLLLVSGAAAATTVAWYQVSPLAARLLYPYLAWLAFTTTLNYCVWRDNHGWRGGRRLPE
notes: translocator protein (18 kDa), TSPO, human, endogenous in HT-29 colon carcinoma cells; Seen as monomer, dimer and trimer bands on an anti-TSPO blot; also called peripheral-type benzodiazepine receptor; mitochondrial translocator protein; source: endogenous, HT-29 mitochondrial membranes solubilised with SDS or 0.1% DDM
Turning to B1, the stoichiometry N (as a rule, the number of molecules, sites or subunits per partner or assembly) was 3 and 2.
